According to patent US20250361274A1, “PEPTIDE AND PEPTIDE-CONTAINING AGENT” (PEPTIDREAM INC., priority 2022, published 2025):
Numbered stars: 1 amine (or outer) side, 2 acyl side, 3 side chain; on linkers, the order of the positions; unused ones are H or OH. Bridge positions count the residues as written; N and C are the ends. Square brackets hold non-standard residues; d marks the D form. Ends that are not written are not given here. KCOpipzaa = N6-(4-(carboxymethyl)piperazine-1-carbonyl)-L-lysine, O=C(NCCCC[C@H](N[*:1])C(=O)[*:2])N1CCN(CC(=O)[*:3])CC1; 3Pal(6-Ph) = N[C@@H](Cc1ccc(-c2ccccc2)nc1)C(=O)O; Phe(4-COOH) = N[C@@H](Cc1ccc(C(=O)O)cc1)C(=O)O; Bip = N[C@@H](Cc1ccc(-c2ccccc2)cc1)C(=O)O; 4Pal = N[C@@H](Cc1ccncc1)C(=O)O

Assays:
BMP4 = molecular target: T1, BMP4 (Homo sapiens, UniProt P12644); assay: BMP4 signal transduction inhibitory activity: SMAD1 phosphorylation by BMP4 stimulus, AlphaLISA SureFire, A549 cells; format: cell-based; settings: A549 cells, SMAD1 phosphorylation; peptides of Synthesis 2; peptide 0.02, 0.2, 2 nM
T1 sequence (P12644 293-408): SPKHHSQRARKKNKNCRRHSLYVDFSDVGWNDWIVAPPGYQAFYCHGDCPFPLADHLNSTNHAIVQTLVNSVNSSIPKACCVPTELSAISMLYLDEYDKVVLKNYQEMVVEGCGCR
Method: In the present Example, a BMP4 signal transduction inhibitory activity of each peptide consisting of an amino acid sequence set forth in any of SEQ ID NOs: 5 to 240 and 243 to 421 synthesized in Example 10 was verified by phosphorylation of SMAD1 caused by BMP4 stimulus. A549 cells were cultured in MEM (Thermo Fisher Scientific) containing 10% FBS (Thermo Fisher Scientific), 1×Non-essential amino acids (Thermo Fisher Scientific), and 50 μg/mL Gentamicin. After TrypLE (Gibco) was used to peel the cells, seeding was performed in a 96-well plate for adhesion cells so that the number of cells would be 20,000 per well, followed by culturing for 48 hours. After the cells were cultured as described above, the culture medium was replaced with a peptide solution or recombinant Human Noggin Protein (R&D) solution as a positive control diluted to various concentrations in a nutrition-starved culture medium containing 0.1% BSA (Sigma) instead of FBS Thirty minutes after culturing, […], to stimulate it for 60 minutes. The culture medium was removed and the cells were lysed with Lysis Buffer provided with AlphaLISA (registered trademark) SureFire (registered trademark) Ultra SMAD1 (p-[…]/465) Assay kit (PerkinElmer). According to the protocol of the kit, a signal was detected using SpectraMax (registered trademark) Paradigm (registered trademark) multimode microplate reader (Molecular Devices). The obtained signal was analysed using GraphPad Prism (GraphPad Software). The % inhibition was calculated by considering non-stimulation as 100% inhibition and BMP stimulation only as 0% inhibition. Regarding SEQ ID NOs: 5 to 187, the concentrations of the peptides synthesized in the same manner as in Example 2 (shown as 2 in the row of Synthesis) were 0.02 nM, 0.2 nM, and 2 nM, and the concentrations of the peptides synthesized in the same manner as in Example 1 (shown as 1 in the row of Synthesis) were 0.2 nM, 2 nM, and 20 nM. The evaluation results were based on the results of evaluation using the peptides synthesized in the same manner as in Example 2. […] Regarding SEQ ID NOs: 243 to 321, the test was performed at the concentrations described in Table 6. […] Regarding SEQ ID NOs: 322 to 421, the test was performed at the concentrations described in Table 7. […] The evaluation tests of the signal transduction inhibitory activities of SEQ ID NOs: 87, 177, and 181 are as follows. Specifically, the inhibitory activity of BMP4 was evaluated in the same manner as in Example 11 that used A549 cells. Eight concentrations of the peptides were used at a common ratio of 1/3 starting from 2 nM. The inhibitory activity of BMP7 was evaluated in the same manner as in Example 12. Eight concentrations of the peptides were used at a common ratio of 1/3 starting from 100 nM. Note that recombinant Human Noggin Protein (R&D) as a positive control was used at the same concentration as that of the peptide. […] The inhibitory activity of BMP7 was evaluated using eight concentrations of the peptides at a common ratio of 1/3 starting from 1,000 nM in the same manner as in Example 12.

BMP7 = molecular target: T2, BMP7 (Homo sapiens, UniProt P18075); assay: BMP7 signal transduction inhibitory activity: SMAD1 phosphorylation by BMP7 stimulus, A549 cells; format: cell-based; settings: A549 cells, 10 nM BMP7; peptides of Synthesis 2; peptide 1, 10, 100 nM
T2 sequence (P18075 293-431): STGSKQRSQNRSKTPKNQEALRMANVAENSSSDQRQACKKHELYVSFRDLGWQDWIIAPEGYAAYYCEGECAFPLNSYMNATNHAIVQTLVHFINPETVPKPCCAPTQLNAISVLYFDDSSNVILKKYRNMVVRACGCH
Method: In the present Example, BMP7 signal transduction inhibitory activity of each peptide consisting of an amino acid sequence set forth in any of SEQ ID NOs: 5 to 240 and 243 to 421 synthesized in Example 10 was verified by phosphorylation of SMAD1 caused by BMP7 stimulus. The evaluation was performed using 10 nM of BMP7 instead of BMP 4. Regarding SEQ ID NOs: 5 to 240, the concentrations of the peptides synthesized in the same manner as in Example 2 (shown as 2 in the row of Synthesis) were 1 nM, 10 nM, and 100 nM, and the concentrations of the peptides synthesized in the same manner as in Example 1 (shown as 1 in the row of Synthesis) were 10 nM, 100 nM, and 1,000 nM, similarly with Example 11. […] Regarding SEQ ID NOs: 243 to 273 and SEQ ID NOs: 299 to 321, the test was performed at the concentrations (10, 100, 1,000 nM) described in Table 6. […] Regarding SEQ ID NOs: 274 to 298, the test was performed at the concentrations (100, 300, 1,000 nM) described in Table 6. […] Regarding SEQ ID NOs: 322 to 370 and SEQ ID NOs: 393 to 421, the test was performed at the concentrations (1, 10, 100 nM). […] Regarding SEQ ID NOs: 371 to 391, the test was performed at the concentrations (10, 30, 90 nM). […] The evaluation tests of the signal transduction inhibitory activities of SEQ ID NOs: 87, 177, and 181 are as follows. Specifically, the inhibitory activity of BMP4 was evaluated in the same manner as in Example 11 that used A549 cells. Eight concentrations of the peptides were used at a common ratio of 1/3 starting from 2 nM. The inhibitory activity of BMP7 was evaluated in the same manner as in Example 12. Eight concentrations of the peptides were used at a common ratio of 1/3 starting from 100 nM. Note that recombinant Human Noggin Protein (R&D) as a positive control was used at the same concentration as that of the peptide. […] The inhibitory activity of BMP7 was evaluated using eight concentrations of the peptides at a common ratio of 1/3 starting from 1,000 nM in the same manner as in Example 12.

| Substance | aLISA BMP4 (BMP4) | aLISA BMP7 (BMP7) |
| --- | --- | --- |
| 17 ({CH2CO}-ARVYVDR[Bip]GYP[Bip]Y[Phe(4-COOH)][Phe(4-COOH)]SCG-NH2; thioether N-17; not fully specified) [compound 17] | A (showed an inhibitory activity of 50% or more in a zone to which the peptide was added to in an amount of 0.2 nM) | C (showed less than 50% of inhibitory activity in 10 nM-addition zone and showed 50% or more of inhibitory activity in 100 nM-addition zone) |
| 18 ({CH2CO}-ARVYVDR[Bip]SYP[Bip]Y[Phe(4-COOH)][Phe(4-COOH)]SCG-NH2; thioether N-17; not fully specified) [compound 18] | A (showed an inhibitory activity of 50% or more in a zone to which the peptide was added to in an amount of 0.2 nM) | C (showed less than 50% of inhibitory activity in 10 nM-addition zone and showed 50% or more of inhibitory activity in 100 nM-addition zone) |
| 22 ({CH2CO}-ARVYVKR[Bip][KCOpipzaa]YP[Bip]Y[Phe(4-COOH)][Phe(4-COOH)]SCG-NH2; thioether N-17; not fully specified) [compound 22] | A (showed an inhibitory activity of 50% or more in a zone to which the peptide was added to in an amount of 0.2 nM) | C (showed less than 50% of inhibitory activity in 10 nM-addition zone and showed 50% or more of inhibitory activity in 100 nM-addition zone) |
| 24 ({CH2CO}-A[KCOpipzaa]VYV[KCOpipzaa]R[Bip]PYP[Bip]Y[Phe(4-COOH)][Phe(4-COOH)]SCG-NH2; thioether N-17; not fully specified) [compound 24] | A (showed an inhibitory activity of 50% or more in a zone to which the peptide was added to in an amount of 0.2 nM) | C (showed less than 50% of inhibitory activity in 10 nM-addition zone and showed 50% or more of inhibitory activity in 100 nM-addition zone) |
| 29 ({CH2CO}-ARVYVDR[3Pal(6-Ph)]PYP[Bip]Y[Phe(4-COOH)][Phe(4-COOH)]SCG-NH2; thioether N-17; not fully specified) [compound 29] | A (showed an inhibitory activity of 50% or more in a zone to which the peptide was added to in an amount of 0.2 nM) | ND (the inhibitory activity was less than 30% at the maximum concentration evaluated) |
| 32 (ARVYVDR[3Pal(6-Ph)]PYP[3Pal(6-Ph)]Y[Phe(4-COOH)][Phe(4-COOH)]SCG-NH2; not fully specified (N-terminus, bridges)) [compound 32] | A (showed an inhibitory activity of 50% or more in a zone to which the peptide was added to in an amount of 0.2 nM) | ND (the inhibitory activity was less than 30% at the maximum concentration evaluated) |
| 33 ({CH2CO}-ARVYVDR[3Pal(6-Ph)]PYP[3Pal(6-Ph)][4Pal][Phe(4-COOH)][Phe(4-COOH)]SCG-NH2; thioether N-17; not fully specified) [compound 33] | C (showed an inhibitory activity of less than 50% in 0.2 nM-addition zone and showed an inhibitory activity of 50% or more in 2 nM-addition zone were defined as B or C) | ND (the inhibitory activity was less than 30% at the maximum concentration evaluated) |
| 34 ({CH2CO}-AKVYVDH[Bip]PYP[Bip]Y[Phe(4-COOH)][Phe(4-COOH)]SCG-NH2; thioether N-17; not fully specified) [compound 34] | A (showed an inhibitory activity of 50% or more in a zone to which the peptide was added to in an amount of 0.2 nM) | C (showed less than 50% of inhibitory activity in 10 nM-addition zone and showed 50% or more of inhibitory activity in 100 nM-addition zone) |
| 35 ({CH2CO}-AKVYVDK[Bip]PYP[Bip]Y[Phe(4-COOH)][Phe(4-COOH)]SCG-NH2; thioether N-17; not fully specified) [compound 35] | A (showed an inhibitory activity of 50% or more in a zone to which the peptide was added to in an amount of 0.2 nM) | ND (the inhibitory activity was less than 30% at the maximum concentration evaluated) |
| 36 ({CH2CO}-AKVYV[KCOpipzaa]K[Bip]PYP[Bip]Y[Phe(4-COOH)][Phe(4-COOH)]SCG-NH2; thioether N-17; not fully specified) [compound 36] | A (showed an inhibitory activity of 50% or more in a zone to which the peptide was added to in an amount of 0.2 nM) | ND (the inhibitory activity was less than 30% at the maximum concentration evaluated) |
| 37 ({CH2CO}-AK(Ac)VYVDK[Bip]PYP[Bip]Y[Phe(4-COOH)][Phe(4-COOH)]SCG-NH2; thioether N-17; not fully specified) [compound 37] | A (showed an inhibitory activity of 50% or more in a zone to which the peptide was added to in an amount of 0.2 nM) | ND (the inhibitory activity was less than 30% at the maximum concentration evaluated) |
| 38 ({CH2CO}-A[KCOpipzaa]VYVDK[Bip]PYP[Bip]Y[Phe(4-COOH)][Phe(4-COOH)]SCG-NH2; thioether N-17; not fully specified) [compound 38] | A (showed an inhibitory activity of 50% or more in a zone to which the peptide was added to in an amount of 0.2 nM) | ND (the inhibitory activity was less than 30% at the maximum concentration evaluated) |
| 39 ({CH2CO}-AQVYVDK[Bip]PYP[Bip]Y[Phe(4-COOH)][Phe(4-COOH)]SCG-NH2; thioether N-17; not fully specified) [compound 39] | C (showed an inhibitory activity of less than 50% in 0.2 nM-addition zone and showed an inhibitory activity of 50% or more in 2 nM-addition zone were defined as B or C) | ND (the inhibitory activity was less than 30% at the maximum concentration evaluated) |
| 40 ({CH2CO}-ASVYVDK[Bip]PYP[Bip]Y[Phe(4-COOH)][Phe(4-COOH)]SCG-NH2; thioether N-17; not fully specified) [compound 40] | D (showed inhibitory activity of less than 50% in 2 nM-addition zone) | ND (the inhibitory activity was less than 30% at the maximum concentration evaluated) |
